Earlier results in article PMC3575409, “Identification of a Novel Protein-Protein Interaction Motif Mediating Interaction of GPCR-Associated Sorting Proteins with G Protein-Coupled Receptors” (PLoS ONE, 2013).

Tested on: GST-fused ADRB1 C-tail
Conditions: truncated form of GASP-1, amino-acids 898 to 1395; ref [10]; cited from earlier work
From the text: This discrepancy is most likely due to the fact that we used full-length GASPs to perform our experiments, while Heydorn and collaborators used a truncated form of GASP-1, corresponding to amino-acids 898 to 1395. When we performed GST-pull down experiments with a similar fragment of GASP-1 (corresponding to amino acids 924 to 1395), only 5% ...

B1: amino-acids 898 to 1395: truncated form of GASP-1 used by Heydorn and collaborators (protein, UniProt Q5JY77 898-1395, looked up, fragment)
chain: ESETEEETIFGSWFWDGKEVSEEAGPCCVSKPEDDEEMIVESWFWSRDKAIKETGTVATCESKPENEEGAIVGSWFEAEDEVDNRTDNGSNCGSRTLADEDEAIVGSWFWAGDEAHFESNPSPVFRAICRSTCSVEQEPDPSRRPQSWEEVTVQFKPGPWGRVGFPSISPFRFPKEAASLFCEMFGGKPRNMVLSPEGEDQESLLQPDQPSPEFPFQYDPSYRSVQEIREHLRAKESTEPESSSCNCIQCELKIGSEEFEELLLLMEKIRDPFIHEISKIAMGMRSASQFTRDFIRDSGVVSLIETLLNYPSSRVRTSFLENMIRMAPPYPNLNIIQTYICKVCEETLAYSVDSPEQLSGIRMIRHLTTTTDYHTLVANYMSGFLSLLATGNAKTRFHVLKMLLNLSENLFMTKELLSAEAVSEFIGLFNREETNDNIQIVLAIFENIGNNIKKETVFSDDDFNIEPLISAFHKVEKFAKELQGKTDNQNDPEGDQEN
interaction of GASP-1 with ADRB1 C-tail: low interaction
